# Article PMC4873633, “Dietary salt regulates uroguanylin expression and signaling activity in the kidney, but not in the intestine” (Physiological Reports, 2016)
# Bridge positions count the residues as written; N and C are the ends. Peptide text beside a SMILES is read from it.
# B1: prouroguanylin (protein, UniProt P70668 22-106, looked up)
# pro-form: VYIKYHGFQVQLESVKKLNELEEKQMSDPQQQKSGLLPDVCYNPALPLDLQPVCASQEAASTFKALRTIATDECELCINVACTGC
# modifications: pro-form
# notes: Recombinant rat proUgn, Ironwood Pharmaceuticals; also endogenous propeptide in plasma
# Assays:
# [1] = target: T1, GC-C (Ugn receptor) in T84 cell membranes (Homo sapiens, UniProt P25092); experiment: Competitive Ugn binding assay (125I-Y-Ugn, T84 cell membranes); conditions: pH 4.5, 1 h at 25°C; for Ki: displacement of 1 nmol/L 125I-Y-Ugn, T84 cell membranes, triplicate, rat Ugn n = 8 (R2 0.9985), rat Gn n = 3 (R2 0.9587), rat proUgn n = 3 (R2 0.9677)
# T1 construct: plasma membranes derived from the T84 cell line, which abundantly expresses GC‐C; endogenous in cells; host or cells: T84 cell membranes
# T1 sequence (P25092 24-1073): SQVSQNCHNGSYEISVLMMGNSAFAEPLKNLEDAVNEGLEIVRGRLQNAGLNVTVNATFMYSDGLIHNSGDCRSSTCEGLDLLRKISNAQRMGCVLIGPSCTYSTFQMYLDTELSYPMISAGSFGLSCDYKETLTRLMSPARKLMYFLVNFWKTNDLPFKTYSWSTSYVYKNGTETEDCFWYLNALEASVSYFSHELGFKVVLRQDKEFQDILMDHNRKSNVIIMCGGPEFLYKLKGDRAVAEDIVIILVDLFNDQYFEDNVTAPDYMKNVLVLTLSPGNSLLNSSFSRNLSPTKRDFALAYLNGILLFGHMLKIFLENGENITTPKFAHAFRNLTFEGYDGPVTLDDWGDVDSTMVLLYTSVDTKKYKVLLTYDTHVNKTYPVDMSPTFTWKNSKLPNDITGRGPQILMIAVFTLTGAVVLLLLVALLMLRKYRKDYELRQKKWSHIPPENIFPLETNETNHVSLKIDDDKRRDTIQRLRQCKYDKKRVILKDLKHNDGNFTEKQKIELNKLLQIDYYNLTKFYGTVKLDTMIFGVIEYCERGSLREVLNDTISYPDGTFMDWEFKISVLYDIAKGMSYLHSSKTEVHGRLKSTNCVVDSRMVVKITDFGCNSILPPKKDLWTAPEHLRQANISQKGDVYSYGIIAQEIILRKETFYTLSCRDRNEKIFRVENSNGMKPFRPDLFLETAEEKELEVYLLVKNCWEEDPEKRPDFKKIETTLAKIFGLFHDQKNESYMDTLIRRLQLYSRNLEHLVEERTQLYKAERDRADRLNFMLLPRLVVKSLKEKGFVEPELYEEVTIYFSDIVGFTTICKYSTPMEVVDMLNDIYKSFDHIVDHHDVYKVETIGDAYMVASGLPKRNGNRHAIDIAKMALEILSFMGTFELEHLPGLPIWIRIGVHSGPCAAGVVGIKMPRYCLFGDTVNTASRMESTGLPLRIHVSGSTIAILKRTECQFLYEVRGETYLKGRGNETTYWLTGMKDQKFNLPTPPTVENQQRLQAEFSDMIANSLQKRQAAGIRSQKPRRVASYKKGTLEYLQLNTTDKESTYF
# Procedure: Urine samples were first dialyzed against deionized H2O, using SpectraPor® 500‐M.W. cutoff dialysis membrane (Spectrum Laboratories Inc., Rancho Domingo, CA), then dried (Savant SpeedVac, Thermo Electron Corporation, Waltham, MA) and re‐dissolved in 100 μL of assay buffer [1 nmol/L ^125I‐Y‐Ugn in NaHCO3–free HBSS supplemented with 20 mmol/L sodium citrate and 0.75% bovine serum albumin (Sigma, St. Louis, Mo, USA)]. The pH was individually adjusted to 4.5 with NaOH or HCl using a miniaturized glass microelectrode (Microelectrodes Inc., Bedford, NH). Prepared samples were incubated in triplicate for 1 h at 25°C in polypropylene tubes with 20 μL of T84 cell membranes (10–20 μg protein). Samples were then diluted in 1 mL of ice‐cold rinse buffer, rapidly filtered through Whatman GF/C glass microfiber filters presoaked in distilled water, and quickly rinsed twice with 5 mL of ice‐cold rinse buffer (50 mmol/L Tris‐HCl at pH 7.0). Bound radioligand (retained by the filter) was quantified with a gamma counter (Packard Cobra, PerkinElmer Life and Analytical Sciences Inc., Waltham, MA). Ugn concentrations in sample solutions were calculated by interpolation in a standard curve obtained from a dilution series of synthetic rat Ugn incubated and analyzed in parallel with the unknowns. Non‐specific binding was determined by including 10^−5 mol/L unlabeled Y‐Ugn in place of Ugn standards or unknowns.
# All data were plotted as mean ± SEM (or, in the case of n = 2, as mean ± range). Paired t‐tests were used for comparison of Ugn excretion, water consumption, and food consumption. GraphPad Prism 5.0 (LaJolla, CA) was used for analysis of binding data, with formulas derived from the Cheng‐Prusoff equation: cpm bound = NSB + [(B max − NSB)/1 + 10∧[log10(competitor concentration) − log10(IC50)]}], where NSB = nonspecific binding (in the presence of saturating competitor) and B max = maximal binding (in the absence of competitor). […]
# Because GC‐C, the Ugn receptor (Schulz et al. 1990), is activated at the apical membranes of the cells that form the renal tubules (White et al. 1989; Hodson et al. 2006; Santos‐Neto et al. 2006), we can evaluate renal Ugn signaling (the presence of Ugn within the tubule lumen) by measuring the rate at which Ugn is excreted in urine (UUgnV). However, the conventional Ugn bioassay, which measures levels of the peptide by quantifying its stimulatory effect on ligand‐activated cGMP synthesis (Carrithers et al. 1999, 2000a), is compromised by high levels of cGMP that are naturally present in urine. […]
# It can quantify Ugn in the picomolar range (Fig. 2A, black circles), allowing us to perform triplicate measurements of Ugn in rat urine samples as small as 20 μL. […]
# [2] = cited from earlier work
# Text: To investigate this in a statistically reliable manner, we obtained single plasma samples from a larger number of individual animals at a specific time of day (3 AM) under each dietary condition. […] Recent speculation has focused on proUgn, rather than Ugn, as the endocrine mediator of this putative signaling axis, because (1) proUgn is by far the most abundant molecular species stored in tissues and circulating in plasma (Moss et al. 2008), and (2) when isotopically labeled recombinant p ...
# [3] = intravascular infusion, rodents; ref none printed in abstract; cited from earlier work
# Text: Abstract The peptide uroguanylin (Ugn) is expressed at significant levels only in intestine and kidney, and is stored in both tissues primarily (perhaps exclusively) as intact prouroguanylin (proUgn). […] In conjunction with previous studies, this observation critically strengthens the contention that Ugn is an authentic endocrine agent as follows: (1) Ablation of the Ugn gene leads to hypertension (Lorenz et al. 2003; Elitsur et al. 2006), an appropriate phenotype for an animal that lacks an endocrine mechanism involved in electrolyte homeostasis.
# [4] = Tissue (vascular) ligation studies, plasma proUgn; type: in vivo, rat
# Procedure: Rats were anesthetized (sodium pentobarbital, 60 mg/kg, ip) and prepared for clearance experiments as previously described (Moss et al. 2010). They received an initial infusion of isotonic saline (6% of body weight), followed by an infusion of 10% mannitol in 0.9% saline at 100 μL/min containing FITC‐labeled inulin (400 μg/mL, Sigma Chemical Co. St Louis, MO). For renal ligations, 5.0 silk thread ligatures were placed loosely around right and left renal arteries, and tightened after baseline data had been collected. For intestinal ligations, the bowels were exteriorized and wrapped in saline‐soaked gauze. […] Blood was sampled every 40 min from the femoral artery.
# ProUgn concentrations in plasma and tissues were measured by quantitative western blotting, as described previously (Moss et al. 2008). Samples were loaded on 4–12% polyacrylamide gels (Invitrogen Corp., Carlsbad, CA), and a standard curve was constructed with known amounts of recombinant rat proUgn (Ironwood Pharmaceuticals, Cambridge, MA). Gels were blotted to nitrocellulose and probed with primary antibody 6910 (Moss et al. 2008; Qian et al. 2008) and an IR dye‐coupled secondary antibody. Imaging and quantification were performed with an Odyssey System (LI‐COR Biosciences, Lincoln, NE). Values were corrected for recovery, as determined in parallel control assays with known amounts of recombinant rat proUgn.
# Previous surveys have identified only two organs (intestine and kidney) that contain levels of proUgn polypeptide sufficient to generate the relatively large circulating pool of proUgn (Moss et al. 2008; Qian et al. 2008). To determine the extent to which each of these organs contributes to the plasma pool, we ligated either the splanchnic or the renal blood supply, and measured the effects of each ligation on circulating proUgn levels. […] For the renal ligations, we also infused each animal with inulin (a reference standard used to assess glomerular filtration rates), and measured plasma inulin at each time point (Fig. 5A, left panel, white symbols). […]
molecule,measurement,setting,value
"^125I‐Y‐Ugn: N‐tyrosyl rat Ugn (Y‐Ugn, Bachem Inc.) iodinated as previously described; radioligand (YTDECELCINVACTGC; 125I-iodinated on the added N-terminal Tyr; two disulfides (Cys1-Cys3 and Cys2-Cys4 of the uroguanylin peptide, by convention); The 15-residue C-terminal peptide limits are by convention; check residu)",Kd,"[1]; T84 cell membranes (10–20 μg protein), filtration, gamma counter, R2 0.9659, n = 3",1.5 nM
"CC[C@H](C)[C@@H]1NC(=O)[C@H](CCC(=O)O)NC(=O)[C@@H](NC(=O)[C@@H](NC(=O)[C@H](CC(N)=O)NC(=O)[C@@H]2CCCN2)[C@@H](C)O)CSSC[C@@H]2NC(=O)[C@H](C)NC(=O)[C@H](C)NC(=O)[C@H](Cc3ccc(O)cc3)NC(=O)[C@H](C)NC(=O)[C@H](CSSC[C@@H](C(=O)O)NC(=O)CNC(=O)[C@H]([C@@H](C)O)NC2=O)NC1=O [Gn, guanylin] (H-PNTCEICAYAACTGC-OH; disulfide 4-12, 7-15)",Ki,[1],170 nM
"CC[C@H](C)[C@@H]1NC(=O)[C@@H]2CSSC[C@@H](C(=O)O)NC(=O)CNC(=O)[C@H]([C@@H](C)O)NC(=O)[C@H](CSSC[C@H](NC(=O)[C@H](CCC(=O)O)NC(=O)[C@H](CC(=O)O)NC(=O)[C@@H](N)[C@@H](C)O)C(=O)N[C@@H](CCC(=O)O)C(=O)N[C@@H](CC(C)C)C(=O)N2)NC(=O)[C@H](C)NC(=O)[C@H](C(C)C)NC(=O)[C@H](CC(N)=O)NC1=O [Ugn, uroguanylin] (H-TDECELCINVACTGC-OH; disulfide 4-12, 7-15)",Ki,[1],1.04 nM
B1,Time for appearance of nearly all recovered Ugn in urine after proUgn,"[2]; intravascular bolus of exogenous proUgn, ref Moss et al. 2010",30 to 60 min
same,Renal filtration and conversion,"[2]; isotopically labeled recombinant proUgn infused intravascularly, ref Qian et al. 2008","readily filtered from plasma by the kidney, and converted within the kidney to Ugn"
same,Ki,[1],8900 nM
same,Natriuretic response,[3],natriuretic responses in rodents
same,Plasma proUgn after renal artery ligation,"[4]; endogenous, anesthetized rats, renal artery ligation",rose rapidly
same,Plasma proUgn after splanchnic ligation,"[4]; endogenous, anesthetized rats, splanchnic ligation",fell to barely detectable levels
same,Postligation rate of rise of plasma proUgn relative to inulin,"[4]; renal artery ligation, FITC-inulin infused, percentage basis",nearly identical to that of inulin
